Legend:
[1] = molecular target: in vitro translated 35S-labelled Ehmeth, full length (TNT-Ehmeth) (E. histolytica)
[2] = molecular target: calmodulin, histidine, hemagglutin (CHH)-tagged-Ehmeth (E. histolytica); experiment: co-IP; anti-HA immunoprecipitation from nuclear lysate of E. histolytica trophozoites expressing a CHH-tagged protein, HNTG buffer (20 mM Hepes pH 7.5, 150 mM NaCl, 0.1% Triton, 10% glycerol), 4°C; blot with anti-enolase; trophozoites grown in regular medium or starved of glucose for 12 hours

B1: GST-Ehenolase (enzyme)
chain: MSIQKVHAREILDSRGNPTIEVEITTGKGMFRSCVPSGASTGVHEAVELRDGDKKRYGGKGVLKAVENVNTIIGPALLGKNVLNQAELDEMMIKLDGTNNKGKLGANAILGCSMSICRAAAAEKGLPLYKYLAELTGHKEMTMPVPCFNVINGGAHAGNALAMQEFMICPTGATNFHEALRMAAETYQCLKVVIKAKYGQDATNVGDEGGFAPNVSGAREALDLLVEAIAKAGYTGKIEIAMDCAASEFYNEETKKYDLGKKIPADKKDPSLVKDVDGLIAEYVDYGKHYPIASIEDPFAEDDWAAWNKFTVEHGNFQIVGDDLLVTNPARVQMAMDKNACNSVLIKVNQIGTLTETFKTIKMAQEKGWGVMASHRSGETEDTFIADLVVGLNCKQIKTGAPCRSERLCKYNQLMRIEEELGNIPYAGKNWRNSTA
Question: With B1 as the binder, how does the inhibition of the tRNA^Asp methyltransferase activity of recombinant Ehmeth (0.4 nmol) by GST-Enolase (2 nmol) [1] read?
Answer: 60 % inhibition

B2: endogenous enolase of E. histolytica trophozoites (enzyme)
chain: MSIQKVHAREILDSRGNPTIEVEITTGKGMFRSCVPSGASTGVHEAVELRDGDKKRYGGKGVLKAVENVNTIIGPALLGKNVLNQAELDEMMIKLDGTNNKGKLGANAILGCSMSICRAAAAEKGLPLYKYLAELTGHKEMTMPVPCFNVINGGAHAGNALAMQEFMICPTGATNFHEALRMAAETYQCLKVVIKAKYGQDATNVGDEGGFAPNVSGAREALDLLVEAIAKAGYTGKIEIAMDCAASEFYNEETKKYDLGKKIPADKKDPSLVKDVDGLIAEYVDYGKHYPIASIEDPFAEDDWAAWNKFTVEHGNFQIVGDDLLVTNPARVQMAMDKNACNSVLIKVNQIGTLTETFKTIKMAQEKGWGVMASHRSGETEDTFIADLVVGLNCKQIKTGAPCRSERLCKYNQLMRIEEELGNIPYAGKNWRNSTA
Question: With B2 as the binder, how does the fold more complex after glucose starvation than in regular medium [2] read?
Answer: 3 fold

Source: article PMC2824750
